# Values joined by “and” are separate entries in the source; they are usually repeats but may differ in a detail not shown here. Identical values can stand only once.
# B1: Cy5-(dT)70-Cy3 (ssDNA)
# DNA: TTTTTTTTTTTTTTTTTTTTTTTTTTTTTTTTTTTTTTTTTTTTTTTTTTTTTTTTTTTTTTTTTTTTTT
# What was measured:
# SSB_EC = SSB_EC (Escherichia coli, UniProt P0AGE0 2-178); assay: FRET titration; 25 C, 40 nM DNA (200 nM in Results text); high FRET peak at 0.44 uM, (SSB)35 mode at >=1.1 uM; Anisotropy: buffer B (composition not in material), 25 mM KCl, 5 mM Mg2+, 25 C, 0.1 nM (Results) or 1 nM (Methods) Fl-(dT)20; temperature series 20-37 C with 25 mM NaCl and glycerol; salt series 0-200/250 mM NaCl at 25 C; FRET at 25 C; pH not given; settings: chain copies: 4; label: 5'-Cy5; 3'-Cy3
# SSB_BA [1] = biological target: T1, SSB_BA (Bacillus anthracis, UniProt Q81JI3 1-172); assay: FRET titration; […]) or 1 nM ([…]; FRET at 25 C; pH not given; settings: protein: recombinant; tags: none stated (pET29b); label: 5'-Cy5; 3'-Cy3
# T1 sequence: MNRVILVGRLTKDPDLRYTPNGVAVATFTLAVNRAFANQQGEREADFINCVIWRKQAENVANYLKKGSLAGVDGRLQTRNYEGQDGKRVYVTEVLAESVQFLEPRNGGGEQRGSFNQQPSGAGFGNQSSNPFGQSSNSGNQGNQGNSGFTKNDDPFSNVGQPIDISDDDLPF
# SSB_BA [2] = biological target: T1, SSB_BA; assay: fluorescence anisotropy; […]) or 1 nM ([…]; FRET at 25 C; pH not given; settings: protein: recombinant; tags: none stated (pET29b); label: 5'-fluorescein
# Sequence of SSB_EC (P0AGE0 2-178): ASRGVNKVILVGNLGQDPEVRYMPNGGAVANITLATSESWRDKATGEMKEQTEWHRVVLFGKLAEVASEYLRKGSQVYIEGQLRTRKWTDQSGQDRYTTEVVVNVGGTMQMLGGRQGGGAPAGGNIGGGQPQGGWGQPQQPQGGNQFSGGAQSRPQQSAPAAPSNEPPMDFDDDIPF
Binder,binding result (SSB_EC),binding result (SSB_BA [1]),Kd (SSB_BA [2])
B1,binds,binds,
TTTTTTTTTTTTTTTTTTTT (ssDNA) [Fl-(dT)20],,,1 nM and 1.2 nM
